Assay results taken from publication PMC5123071, “The Apaf-1 apoptosome induces formation of caspase-9 homo- and heterodimers with distinct activities” (Nature Communications, 2016).
Positions count from the first letter of the chain named.

T1: recombinant full-length Apaf-1XL (UniProt O14727-1 1-1248)
T1 construct: Oligomerised into the apoptosome with bovine cytochrome c (Sigma) and dATP/MgCl2; also called oligomerized Apaf-1; Apaf-1 apoptosome; source: Hi-five or Sf21 cells, baculovirus, purified
T1 sequence (looked up): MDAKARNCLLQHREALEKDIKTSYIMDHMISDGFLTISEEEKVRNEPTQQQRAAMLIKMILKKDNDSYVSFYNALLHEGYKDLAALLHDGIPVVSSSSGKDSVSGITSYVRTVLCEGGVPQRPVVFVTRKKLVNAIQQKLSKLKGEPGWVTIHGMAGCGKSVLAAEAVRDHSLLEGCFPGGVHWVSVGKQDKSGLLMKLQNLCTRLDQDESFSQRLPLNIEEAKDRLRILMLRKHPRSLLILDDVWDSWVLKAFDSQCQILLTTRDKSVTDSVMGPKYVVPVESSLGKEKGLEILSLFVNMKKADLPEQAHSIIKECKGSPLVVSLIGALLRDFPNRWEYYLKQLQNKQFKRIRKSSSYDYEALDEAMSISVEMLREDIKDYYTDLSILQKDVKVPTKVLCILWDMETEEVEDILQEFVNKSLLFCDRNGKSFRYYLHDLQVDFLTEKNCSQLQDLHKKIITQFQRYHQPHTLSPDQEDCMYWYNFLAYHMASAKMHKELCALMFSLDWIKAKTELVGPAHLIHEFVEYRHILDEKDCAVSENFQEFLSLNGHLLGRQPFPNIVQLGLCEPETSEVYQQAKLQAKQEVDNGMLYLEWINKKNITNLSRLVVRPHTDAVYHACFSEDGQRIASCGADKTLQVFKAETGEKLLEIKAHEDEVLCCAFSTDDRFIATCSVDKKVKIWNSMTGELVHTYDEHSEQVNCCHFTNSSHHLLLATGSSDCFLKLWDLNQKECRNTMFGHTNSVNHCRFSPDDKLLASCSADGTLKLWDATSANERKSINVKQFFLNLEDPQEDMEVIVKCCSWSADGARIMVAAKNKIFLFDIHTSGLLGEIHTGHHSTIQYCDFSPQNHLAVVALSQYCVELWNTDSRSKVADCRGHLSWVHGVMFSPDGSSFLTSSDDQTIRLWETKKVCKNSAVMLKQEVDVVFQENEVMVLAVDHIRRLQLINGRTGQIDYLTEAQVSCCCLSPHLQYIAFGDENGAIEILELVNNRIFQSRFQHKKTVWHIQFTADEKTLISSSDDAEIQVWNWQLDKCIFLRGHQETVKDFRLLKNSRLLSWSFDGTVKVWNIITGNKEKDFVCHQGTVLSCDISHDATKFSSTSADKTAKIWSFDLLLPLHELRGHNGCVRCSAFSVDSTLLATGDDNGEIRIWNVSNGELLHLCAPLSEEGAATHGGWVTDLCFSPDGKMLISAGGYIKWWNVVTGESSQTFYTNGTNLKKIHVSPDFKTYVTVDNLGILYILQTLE

T2: processed two-chain caspase-9 C9-p35/p12 (UniProt P55211 1-315; P55211 316-416)
T2 construct: caspase-9, p35 (prodomain and large subunit), ends at Asp-315 (PEPD315); caspase-9, p12 small subunit with the intersubunit linker, begins after Asp-315; Purified on Ni2+-NTA; also called processed C9; cleaved C9; source: E. coli BL21(DE3)pLysS, wild-type ProC9 overexpressed and autocleaved at Asp-315, purified (Ni2+-NTA, Mono-Q)
T2 sequence (looked up) 1: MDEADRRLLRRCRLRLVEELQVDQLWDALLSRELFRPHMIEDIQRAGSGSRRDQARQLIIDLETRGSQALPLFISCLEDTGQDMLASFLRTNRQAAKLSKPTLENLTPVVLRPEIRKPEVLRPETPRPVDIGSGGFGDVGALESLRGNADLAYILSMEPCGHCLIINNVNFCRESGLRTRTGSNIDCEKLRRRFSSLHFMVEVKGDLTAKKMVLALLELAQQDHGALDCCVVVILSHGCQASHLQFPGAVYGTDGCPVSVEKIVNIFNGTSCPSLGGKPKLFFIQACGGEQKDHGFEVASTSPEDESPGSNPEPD
T2 sequence (looked up) 2: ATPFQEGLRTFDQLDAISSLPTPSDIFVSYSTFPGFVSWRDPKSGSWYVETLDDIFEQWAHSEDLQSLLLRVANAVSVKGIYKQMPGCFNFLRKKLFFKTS

B1: C9 prodomain (domain or fragment)
chain: MDEADRRLLRRCRLRLVEELQVDQLWDALLSRELFRPHMIEDIQRAGSGSRRDQARQLIIDLETRGSQALPLFISCLEDTGQDMLASFLRTNRQAAKLSKPTLENLTPVVLRPEIRKPEVLRPETPRPVDIGSGGFG
B2: Apaf-1 NOD protein (127-530) (domain or fragment, UniProt O14727 127-530, looked up)
chain: VTRKKLVNAIQQKLSKLKGEPGWVTIHGMAGCGKSVLAAEAVRDHSLLEGCFPGGVHWVSVGKQDKSGLLMKLQNLCTRLDQDESFSQRLPLNIEEAKDRLRILMLRKHPRSLLILDDVWDSWVLKAFDSQCQILLTTRDKSVTDSVMGPKYVVPVESSLGKEKGLEILSLFVNMKKADLPEQAHSIIKECKGSPLVVSLIGALLRDFPNRWEYYLKQLQNKQFKRIRKSSSYDYEALDEAMSISVEMLREDIKDYYTDLSILQKDVKVPTKVLCILWDMETEEVEDILQEFVNKSLLFCDRNGKSFRYYLHDLQVDFLTEKNCSQLQDLHKKIITQFQRYHQPHTLSPDQEDCMYWYNFLAYHMASAKMHKELCALMFSLDWIKAKTELVGPAHLIHEFVEYR
notes: aa 127–530); Oligomerised with dATP/MgCl2; also called T7-NOD; NOD apoptosome complexes; source: E. coli BL21(DE3)pLysS, purified (Ni2+-NTA, Mono-Q; MBP removed with TEV protease, negative selection on Ni2+-NTA beads; not shown: MBP, N-terminal, cleaved; His6, internal (between MBP and NOD), cleaved
B3: C9-p35/p12-CIVSM (enzyme)
chain 1: T2 sequence (looked up) 1
chain 2: T2 sequence (looked up) 2 with G87C, C88I, F89V, N90S, F91M
notes: caspase-9, p35 (prodomain and large subunit), ends at Asp-315; caspase-9, p12 small subunit, GCFNF dimer motif replaced by the caspase-3 motif CIVSM; Homodimer by SEC-MALS; also called GCFNF→CIVSM; source: E. coli BL21(DE3)pLysS, ProC9-CIVSM fully processed during expression, purified (Ni2+-NTA, Mono-Q); copies: 2 + 2
B4: biotinylated Apaf-1 CARD-LZ-Avi (domain or fragment)
chain: not shown
modifications: biotin on the AviTag (BirA)
notes: Apaf-1 CARD (1-137); GCN4 leucine zipper, C-terminal to the CARD, followed by the AviTag and the His6-tag; Cloned into pRSF-Duet1; also called Apaf-1 CARDs; source: E. coli BL21(DE3)pLysS, purified (Ni2+-NTA, Mono-Q), biotinylated with BirA, avidin column

Tests used:
[1] = molecular target: B4; assay: SPR; biotinylated Apaf-1 CARD-LZ-Avi immobilised on an SA chip; C9 proteins 125 nM-2 μM as analytes; 0.01 M HEPES, 0.15 M NaCl, 3 mM EDTA, 0.05% P20; room temperature; affinities by equilibrium analysis, kinetics fitted to a two-state model; settings: both partners purified
[2] = molecular target: the molecule itself; assay: SEC; Apaf-1 NOD (1.5 μM) and ΔPro-C9-TM (80 nM) with dATP/MgCl2 (2 mM each), 30 min 37 °C; Superose-6 in 20 mM HEPES, 50 mM NaCl, 10 mM DTT, pH 8.0; fractions immunoblotted with anti-T7
[3] = molecular target: T1, recombinant full-length Apaf-1XL; assay: SEC; Apaf-1 (300 nM) with C9 protein (200 nM) and Cc/dATP, 30 min 37 °C; Superose-6 gel filtration, pooled fractions precipitated and immunoblotted for Apaf-1 and C9; settings: both partners purified
[4] = molecular target: the molecule itself; assay: SEC-MALS; recombinant C9 proteins 200 μl at 40 μM; 20 mM HEPES, 50 mM NaCl, pH 8.0; 0.5 ml/min
C9-p35/p12-CIVSM = molecular target: B3; assay: SPR; biotinylated Apaf-1 CARD-LZ-Avi immobilised on an SA chip; C9 proteins 125 nM-2 μM as analytes; 0.01 M HEPES, 0.15 M NaCl, 3 mM EDTA, 0.05% P20; room temperature; affinities by equilibrium analysis, kinetics fitted to a two-state model; settings: both partners purified
[5] = molecular target: T2, processed two-chain caspase-9 C9-p35/p12; assay: as above; settings: both partners purified

For B1, the Kd [1] was 41800 nM.

B2: binds [2].

With B3 the binding result [3] was “binds” and the “stoichiometry N” value [4] was 2.

With B4 the Kd (C9-p35/p12-CIVSM) was 68 nM and the Kd [5] was 388 nM.
